How the values were obtained:
[1] = biological target: T1, CaRF (TNT) (Homo sapiens, UniProt Q8N187 1-725); test: EMSA; EMSA: 2 uL TNT or purified CaRF with 50 fmol 32P probe, 6% non-denaturing gel; competitors 50-150-fold excess, 30 min pre-incubation; buffer, pH and temperature not stated (cited ref 14); conditions: protein: ivt; tags: N-terminal FLAG (DYKDDDDK); label: 32P when probe; blunt
T1 sequence: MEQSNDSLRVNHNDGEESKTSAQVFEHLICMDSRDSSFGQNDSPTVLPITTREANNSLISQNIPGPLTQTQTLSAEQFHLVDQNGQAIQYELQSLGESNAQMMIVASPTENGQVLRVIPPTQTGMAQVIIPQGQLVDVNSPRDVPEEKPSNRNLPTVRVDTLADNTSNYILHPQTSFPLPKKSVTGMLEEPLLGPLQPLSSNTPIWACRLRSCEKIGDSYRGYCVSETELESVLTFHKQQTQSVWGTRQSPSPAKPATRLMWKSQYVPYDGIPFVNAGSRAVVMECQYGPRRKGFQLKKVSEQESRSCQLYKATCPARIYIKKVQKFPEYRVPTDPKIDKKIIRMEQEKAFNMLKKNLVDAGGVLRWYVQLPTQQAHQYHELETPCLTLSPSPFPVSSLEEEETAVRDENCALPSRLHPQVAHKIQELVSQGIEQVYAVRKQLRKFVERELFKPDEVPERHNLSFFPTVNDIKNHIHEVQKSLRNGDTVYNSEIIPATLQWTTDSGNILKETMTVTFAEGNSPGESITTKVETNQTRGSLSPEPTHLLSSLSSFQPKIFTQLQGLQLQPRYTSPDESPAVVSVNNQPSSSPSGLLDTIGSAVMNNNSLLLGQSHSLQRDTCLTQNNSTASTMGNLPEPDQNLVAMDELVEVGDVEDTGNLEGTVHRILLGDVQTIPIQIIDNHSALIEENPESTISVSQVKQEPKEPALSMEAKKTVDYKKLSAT

[2] = biological target: T2, CaRF (E. coli) (Mus musculus (Methods); human per Fig 2 …, UniProt Q8VHI4 1-689); test: as above; conditions: protein: recombinant; label: 32P when probe; blunt
T2 sequence: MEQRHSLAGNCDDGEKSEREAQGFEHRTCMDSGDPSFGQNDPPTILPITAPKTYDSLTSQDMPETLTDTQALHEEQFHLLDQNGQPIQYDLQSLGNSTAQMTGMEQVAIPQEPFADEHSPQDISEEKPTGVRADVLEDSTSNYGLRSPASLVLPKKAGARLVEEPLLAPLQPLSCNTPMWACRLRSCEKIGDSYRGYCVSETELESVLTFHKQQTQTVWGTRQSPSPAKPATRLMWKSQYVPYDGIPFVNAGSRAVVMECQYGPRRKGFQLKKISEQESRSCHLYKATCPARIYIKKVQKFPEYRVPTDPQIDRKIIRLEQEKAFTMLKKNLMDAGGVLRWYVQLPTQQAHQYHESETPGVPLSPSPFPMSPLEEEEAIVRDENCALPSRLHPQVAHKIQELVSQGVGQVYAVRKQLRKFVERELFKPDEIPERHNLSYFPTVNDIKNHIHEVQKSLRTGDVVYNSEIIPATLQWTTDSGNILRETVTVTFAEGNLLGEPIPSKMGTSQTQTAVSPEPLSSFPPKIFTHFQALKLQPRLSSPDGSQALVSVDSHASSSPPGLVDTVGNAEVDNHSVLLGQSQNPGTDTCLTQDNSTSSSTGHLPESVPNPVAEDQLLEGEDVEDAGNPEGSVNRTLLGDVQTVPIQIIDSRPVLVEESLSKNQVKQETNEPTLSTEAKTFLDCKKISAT

[3] = biological target: T1, CaRF (TNT); test: competition; CaRE1 probe, 50-fold excess; EMSA: 2 uL TNT or purified CaRF with 50 fmol 32P probe, 6% non-denaturing gel; competitors 50-150-fold excess, 30 min pre-incubation; buffer, pH and temperature not stated (cited ref 14); conditions: protein: ivt; tags: N-terminal FLAG (DYKDDDDK); blunt
[4] = biological target: T2, CaRF (E. coli); test: as above; conditions: protein: recombinant; blunt
[5] = biological target: T3, recombinant CaRF (Figs 5 and 6) (UniProt Q8VHI4 1-689); test: competition; camCaRE probe, 50-100-fold excess; EMSA: 2 uL TNT or purified CaRF with 50 fmol 32P probe, 6% non-denaturing gel; competitors 50-150-fold excess, 30 min pre-incubation; buffer, pH and temperature not stated (cited ref 14); conditions: protein: recombinant; blunt
T3 sequence: T2 sequence

[6] = biological target: T3, recombinant CaRF (Figs 5 and 6); test: competition; cCaRE probe, 100-fold excess; higher affinity than CaRF1; EMSA: 2 uL TNT or purified CaRF with 50 fmol 32P probe, 6% non-denaturing gel; competitors 50-150-fold excess, 30 min pre-incubation; buffer, pH and temperature not stated (cited ref 14); conditions: protein: recombinant; blunt
[7] = biological target: T3, recombinant CaRF (Figs 5 and 6); test: EMSA; EMSA: 2 uL TNT or purified CaRF with 50 fmol 32P probe, 6% non-denaturing gel; competitors 50-150-fold excess, 30 min pre-incubation; buffer, pH and temperature not stated (cited ref 14); conditions: protein: recombinant; label: 32P when probe; blunt

B1: CaRE1 (dsDNA)
DNA 1: GAGTGTCTATTTCGAGGCAGAGGAGG
DNA 2: CCTCCTCTGCCTCGAAATAGACACTC
[1]
  binding result: binds
[2]
  binding result: binds

B2: mCaRE1 (mCaRE) (dsDNA)
DNA 1: GAGTGTCTTCCGCCAGGCAGAGGAGG
DNA 2: CCTCCTCTGCCTGGCGGAAGACACTC
[3]
  binding result: no binding
[4]
  binding result: no binding
[5]
  binding result: no binding

B3: CaRF2 (dsDNA)
DNA 1: TGAGTAGTCTCGTTTTGAATTTTCTCC
DNA 2: GGAGAAAATTCAAAACGAGACTACTCA
[6]
  binding result: binds

B4: camCaRE (dsDNA)
DNA 1: TCAAAGCGAGGCAGA
DNA 2: TCTGCCTCGCTTTGA
[7]
  binding result: binds

From article PMC2877716, “Genome-Wide Identification of Calcium-Response Factor (CaRF) Binding Sites Predicts a Role in Regulation of Neuronal Signaling Pathways”
